Data reported in article doi:10.1101/2025.07.03.663104.

Target: OsPR5-His (rice (Oryza sativa)) (UniProt P31110)
Experiment: BLI

OsPR5-His (rice (Oryza sativa)), sequence (P31110 27-177): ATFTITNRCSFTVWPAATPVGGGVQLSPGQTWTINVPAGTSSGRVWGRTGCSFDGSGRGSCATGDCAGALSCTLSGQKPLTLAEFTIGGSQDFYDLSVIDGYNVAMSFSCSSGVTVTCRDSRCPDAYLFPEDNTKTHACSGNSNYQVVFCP

| Substance | Kd [nM] |
| --- | --- |
| GBP-His (natural protein) | 0.745 |
| ThBP15k (recombinant, no tag named) (natural protein) | 25.9 |
